Assay results published in the nanobody polyreactivity screen of Harvey et al. (2022).

Test: yeast display, Sf9 membrane polyspecificity reagent, FACS + sequencing; frameworks hold sequencing errors
Procedure, shortened: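 Using colony PCR, genes from sorted yeast display clones were amplified, then sequenced on MiSeq at 2 × 250 and filtered by CDR length. The clones had been stained with 10% biotinylated, detergent-solubilized Sf9 membrane reagent for 1 hour at 4 °C and sorted by FACS into low and high (top ~1%) gates on anti-HA and streptavidin fluorescence. Polyreactivity labels come from the gate of origin.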

| Sequence | polyreactivity (PSR sort gate) |
| --- | --- |
| QVQLVESGGGLVQAGGSLRLSCAASGRIFRWYAMGWYRQAPGKERELVAAITQGGGSTYYADSVKGRFTISRDNAKNTVYLQMNSLKPEDTAVYYCAARGRSVGSAGTSRYGYWGQGTQVTVSS | high polyreactivity |
| QVQLVDSGGGLVQAGGSLRLSCAASGSTFLYYSMGWYTQAPGKERELVAVISWSGVSTYYADSVKGRFTISRDNAKNSVYLQMNSLKPEDTAVYYCNTGNHYIRTYGYWGQGTQVTVSW | low polyreactivity |
| QVHLVESGGGLVQAGGSLRLSCAASGSTIDYKAMGWYRQAPGKERELVAAITTIGGSTYYADSVKGRFTISRDNAKNTVYLQMNSLKPEDTAVYYCAADLRVWGRSGYDYWGQGTQVTVSS | low polyreactivity |
| QVQLVESGGGLVQARGSLRLSCAASGSIIDYYAMGWYRQAPGKERELVAAINISGGDTYYADSVKGRFTISRDNAKNTVYLQMNSLKPEDTAVYYCNADRFYIDYSNTYDSIRDYWGQGTQVSVSS | low polyreactivity |
| QVQLVESGGGLVQAGGSLRLSCAASGNIFYVYAMGWYRQAPGKERELVAVISRNDGSTYYADSVKARFTISRDNAKNTVYLQMNSLKPEDTAVYYCNAEWYFWGQGTQVTVSS | low polyreactivity |
| QVQLVESGGGLVQAGGSLRLSCAASGSIFRPYAMGWYRQAPGKERELVAAISYRGGSTYYADSVKGRFTISRDYAKNTVYLLMNRLKPEDTAVYYCAADSREEGDYWGQGTQVTVSS | low polyreactivity |
| QVQLVESGGGLVQAGGSLRLSCAPSGSTFVRYAMGWYRQAPGKESELVAAISKSGVSTYYADSVKGRFTISRDNAKNTVNLQMNSLKPEDTAVYYCAAYARGVRRYRRYDYWGPGTQVTVSS | high polyreactivity |
| QVQLVESGVGLVQAGGSLRLSCASSGRILTYYAMGWYRQAPGKERELVASISSNGGTYYADSVKGRFTISRDNAKNTVYLQMNSLKPEDTAVYYCNAKRVARYQYGASYNYWGQGTQVTVSS | high polyreactivity |
| QVQLVESGGGLVQAGGSLRLSCAASGSTFGKYAMGWYRQAPGKERELVAAITRRTGSTYYADSVKGRFTISRDNAKNTVYLQMNSLKPVDTAVYYCAARLPQYRYDYWGQGTQVTVSS | high polyreactivity |
| QVQLVESGGGLVQAGGSLRLSCAASGLTLYRYVMGWYRQAPGKERELVADISGRGTSTYYADSVKGRFTISRDNAKNTVYLQMNRLKPAATAVYYCNAEYTKTGALVIPYTYYYAEDYWGQGTQVTVSS | low polyreactivity |
| QVQLVESGGGLVQAGGSLRLSCAASGSIFFGNAMGWYRQAPGKERELVAASTTSGGSTYYADSVKGRFTISRDNAKNTVYLQMNSLKPEDTAVYYCNAEYRTGVDGPRSRGGDYWGQGTQVTVSS | low polyreactivity |
| QVQLVESGGGLVQAGGSLRLSCAASGRIFGVYAMGWYRQAPGKERELVAAISSTGDRTYYADSVKGRFTISRDNAKNTVYLQMNSLKPEDTAVYYCAARPAYRSSYYWGQGTQVTVSS | high polyreactivity |
| QVQLVDSGGGLVQAGGSLRLSCAATGTIFAAYVMGWYRQAPGKERELVAAISYSGGGTYYADSVNGRFTISRDNAKNTVYIQMNSLKPEDTAVYYCAADFGVFKSARYYYWGQGTQVTVSS | low polyreactivity |
| QVQLVESGGGLVQAGGSLRLSCAASGRTLRLYAMGWYRQAPGKERELVAAISSRGRTYYADSVKGRFTISRDNAKNTVYLQMNSLKPEDTAVYYCAVVVYQGFRSKYYYWGQGTQVTVSS | high polyreactivity |
| QVHLVESGGGLVQAGGSLRLSCAASGRTFCYNAMGWYRPAPGKERELVAAITSSGGGTSYADSVKGRFTISRDNAMNTVYLQMNSLKPEDTAVSYCARVRRYPLRYNYWGQGTQLTVSS | high polyreactivity |
| QVQLVESGGGLVQAGGSRRLSCAASGSIFVKYAMGWYRQAPGKERELVAAISQSGVRTYYADSVKGRFTISRDNAKNTVYLQMNSLKPEDTAVYYSAAYSGYYYWGQGTQVTVSS | high polyreactivity |
| QVQLVESGGRLVQAGGSLRLSCAASGSTFRYYAMGWYRQAPGKERELVAAITSSGTSTYYADSVKGRFTISRDNAKNTVYLQMNSLKPEDTAVYYCAAPPVYKWVSSRYDYWGQGTQVTVSS | low polyreactivity |
| QVQLVESGGGLVQAGGSLRLSCAASGRTFRYNTMGWYRQAPGKERELVAAITRSGGTTYYADSVKGRFTISRDNAKNTVYLQMNSLKPEDTSVYYCAAEGQAVRKSARDVFFEEFDYWGHGTQVTVSS | low polyreactivity |
| QVQLVESGGGLVQAGGSLRLSSAASGRIFVNYAMGSSRQAPGKERELVAAITSDGSTSYADSVNGRFTISRDNAKNTVFLEMNSLKPEDTAVYYCAKGQRDREEYDYWGQGTQVTVSS | low polyreactivity |
| QGQLVESGGGLVQAGGSLRLSCAASGNIFNRYGMGWSRQAPGKERELVAAISSSGTSPYYADSVKGRFTISRDYAKNTVYLQMNSLKPEDTAVYYCAASYPTRAWEYDYWGQGTQVTVSS | high polyreactivity |
| QVQLVESGGGLVQAGGSLRLSCAASVYTSSLNAMGWYRQAPGKERELVARITTDGTSTYYADSVKGRFTISRDNAKNTVYLQMNSLKPEDTAVYYCNARYPAYGVRSWYPYAYYYWGQGTQVTVSS | low polyreactivity |
| QVQLVESGGGSVQAGGSLRLSCAASGSTFQYYDMGWYRQAPGKERELVASITGSGDSTYYADSVKGRFTISRDNAKNTVYLQLNSLKPEDTAVYYCAAQNTWSGDYDYWGQGTQVTVSS | low polyreactivity |

| Sequence | polyreactivity (PSR sort gate) |
| --- | --- |
| QVQLVESGGGLVQAGGSLRLSCAASGIIFRRNAMGWYRQAPGKERELVAAIRWSGGSTYYADSVKGRFTISRDNAKNTVYLQMNSLKPEDTAVYYCAARYYRPRYEMDYWGQGTQVTVSS | low polyreactivity |
| QDQLVESRVGLVQAGGSLRLSCAASGRIIPKYAMGWYRQAPGKERELVAAISSSGGSTYYADSVKGRFTISRDYAKNNVYLQMNSLNPEVTAVYYCNVDKATRYRYPGFDYWGQGTQVSVSS | high polyreactivity |
| QVQLVESGGGLVQAGGSLRLSCAASGSTFAIYAMGWYRQAPGKERELVAAISKSGGSTYYADSVKGRFTISRDNAKNTVYLQMNILKPEDTAVYYCARRQYAFGPYGFYYWGQGTQVTVSS | high polyreactivity |
| QVQLVESGGGLVQAGGSLRLSCAASGSTLLTYTMGWYRQAPGKERELVASITTSARSTYYADSVKGRFTISRDNAKNTVYLQMNSLKPEDTAVYYWGQGTQVTVSS | low polyreactivity |
| QVQLVASGGGLVQAGGSLRLSCAASGSIFRFNPMGWSRHEPGKERELVAAISQSGSSTYYADSLKGRFTISRDNAKNTVYLQMNSLKPEDTAVYYCNVYTYQPYRMDLWRQGTQVTVSS | high polyreactivity |
| QVQLVESGGGLVQEGGSLRLSCAASGFIFFLNAMGWYRQAPGKERELVAAISSSGGRTYYADSVKGRFTISRDNAKITVYLQMNSLKTEVTAVYYCNAVTLYRSRTDGYWGQGTQVTVSS | high polyreactivity |
| QVQLVESGGGLVQAGGSLRLSCAASGRTFTHNVMGRYRQAPGKERELVAGISSTGGSTYYADSVKGRFTISRDNAKNTVYLQMNSLKPEDTAVYYCAVIGYHYSAISPPSQTRQGYDYWGQGTQVTVSS | low polyreactivity |
| QVQLVESGGGLVQAGGSLRLSCAASGITFVFNVMGWSRQAPGKERELVADIRSGGTTNYADSVKGRFTISRDNAKNTVYIQMNSLKPEDTAVYYCAKEKYDYVGDYEVDYWGQGTQVTVSS | low polyreactivity |
| QVQLVESGGGLVQAGGSLRLSCAASGSTFYIYAMVWYRQAPGKERELVAAITGTGGSTYYADSVKGRFTISRDNAKNSVYLQMNSLKPEDTAVYYCAVGFGYYYKYGYWGQGTQVTVSS | low polyreactivity |
| QVQLVESGGRLVQAGGSLRLSCAASGFSFGGNVIGWYRQAPGKDREFVAAITDGDGSTYYADSVKGRFTISRDNAKNTVYLQMNSLKPEDTSVYYCAGDVYYADVYPVEYWGQGTQVTVSS | high polyreactivity |
| QVQLVESGGGLVQAGGSLRLSCAASGRTVPGYVMGWYRQARGKERELVAAITSGGSTNYADSVKGRFTISRDNAKNTVYLQMNSLKPEDTAVNYCNADRNRWPWSVFTSEYWGQGTQVTVSS | low polyreactivity |
| QVQLVESGGGLVQAGGSLRLSCAASGGISTAYTMGWYRQEPGKERELVADITRSGGRTYYADSVKGRFTISRDTAKNNVYLQMNSLKPEDTAVYYCARTYYYRFNYWGQGTQVTVSS | high polyreactivity |
| QVQLVESGGGLVQAGGSLRLSCAASGSIFYGYAMGWSRQAPGKERELVAVITDGGGSTYYADSVKGRFTISRDNAKNTVYLQMNSLKPEDTAVYYCAADSWGPYYYSSYSYDYWGQGTQVTVSS | low polyreactivity |
| QVQLVESGGGLVQAGGSLRLSCADSGLIFGRNAMGWYRQAPGKERELVAAITSGGSTYYADSVKGRFTISRDNAKNTVYLQRNSLKPEDTAVYYCAADVVDLYLLDYWGQGTQVTVSS | low polyreactivity |
| QVQLVESGGGLVQAGGSLRLSCAASGSIFDAYALGWYRQAPGKERELVADITFSAGRTYYADSVKGRFTITRDNAKNTVYLQMNSLKPEDTAVYYCAADSIVGDGYWSYYWGQGTQVTVSS | low polyreactivity |
| QVQLLESGGGLVQAGGSLRLSSASSSFIFYSNDMGSYRQAPGKERELVAAISRRCGSTYYADSVKGRFTISRDNAKNTVFLQMNSLKPEDTAVYYCAARVGSGFDSWGQGTQVTVSS | high polyreactivity |
| QVQLVESGGGLVQAGGSLRLSCAASGFIFIRYAMGWYRQAPGKERELVAAISASGVRTYYADSVKGRFTISRDNAKNTVYLQMNSLKPEDTAVYDCAVRSAWVYGIGRYYWGQGTQVTVSS | high polyreactivity |
| QVQLVESGGGLVQAGGSLRLICASSGRIFAGYAMGWYRQAPGKERELVAAIRDSGRTYYAVSVKGRFTISRDNAKNTVYLQMNSLKPEVTAVSYCAADAHSSYSPFRWYDYWGQGTQVTVSS | low polyreactivity |
| QVQLVESGGGLVQAGGSLRLSCAASGRIFSRNAMGWYRQAPGKEWELVARITVTVGSTYYADSVKGRFTISRDNAKNTVYLQMNSLKPEDTAVYYCAADAGYRYDCPYNYYYWGQGTQVTVSS | low polyreactivity |
| QVQLVESGGGLVQAGGSLRLSCAASGLTFAGNAMGWSRQAPGTERELVAAITWTGDRTYYADSVKGRFTISRDNAKNTVYLQMNCLKPEDTAVYYCAAQVRSLYSPGWYYYWGQGTQVTVSS | high polyreactivity |
| QVQLVESGGGLVQAGGSLRLSCAASGRTLHDYTMGWYRQAPGKERELVAGITSGGRTNYADSVKGRFTISRDNAKNTVYLQMNSLKPEDTAVYYCAAAWTWWRLYADDYWGQGTQVTVSS | high polyreactivity |
